The text below walks through data of patent US20260125446A1 (Eli Lilly, published 2026).

For assay [1], the target named is T1, rabbit serum albumin (rabbit, UniProt P49065 25-608).
T1 construct: Bought protein, immobilized on a CM5 chip by amine coupling; also called Rabbit SA
As to the kind of experiment: SPR (Biacore 8K), albumin immobilized on CM5 chip, 25 C. The procedure:
(§1) The immobilization of the serum albumin to a Series S Sensor Chip CM5 surface is performed according to the manufacturer's instructions (Amine Coupling Kit BR-1000-50). Briefly, carboxyl groups on the sensor chip surfaces (flow cell 1 and 2) are activated by injecting 70 μL of a mixture containing 75 mg/mL EDC and 11.5 mg/mL NHS at 10 μL/min. Human, cynomolgus monkey, mouse, rat, pig, dog, cow and rabbit serum albumin are diluted in 10 mM sodium acetate pH 4.0 (BR-1003-49) at […] and then injected over the activated chip surfaces (flow cell 2, channel 1 to 8) at 10 μL/min for 180 sec (human, mouse, rat, pig and cow serum albumin are obtained from Sigma Aldrich (St. Louis, MO); cynomolgus monkey serum albumin is obtained from Hölzel Diagnostika (Cologne, Germany); dog serum albumin is obtained from Molecular Innovations (Novi, MI); and rabbit serum albumin is obtained from Fitzgerald Industries Intl. (Acton, MA). The various serum albumins are covalently immobilized through free amines onto a carboxymethyl dextran-coated sensor chip CM5 targeting a surface density of about 100 (62-145) RU. Excess reactive groups on the surfaces (flow cell 1 and 2) are deactivated by injecting 70 μL of 1 M ETA HCl—NaOH pH 8.5.
(§2) 150 μl of sample is individually injecting sequentially across the immobilized serum albumins on the chip's surface and dissociating for 600 sec at 50 μL/min flow rate at 25° C. The surface is regenerated by injecting 10 mM glycine-HCl pH 1.5 (BR-1003-54) at 50 μL/min for 100 sec. The resulting sensorgrams are analyzed using Biacore 8K Insight Evaluation Software (version 2.0.15.12933) 1:1 binding kinetics model fitting to calculate the binding kinetic parameter association rate (ka), dissociation rate (kd), and equilibrium dissociation constant (KD).
In general terms: Surface plasmon resonance follows binding to a sensor surface in real time, without labels.

For assay [2], the target named is T2, cynomolgus monkey serum albumin (cynomolgus monkey, UniProt A2V9Z4 25-608).
T2 construct: Bought protein, immobilized on a CM5 chip by amine coupling; also called Cyno SA
The experiment in a line: SPR (Biacore 8K), albumin immobilized on CM5 chip, 25 C, 1:1 kinetic fit. The procedure:
as §1, §2

In assay [3] the target is T3, mouse serum albumin (mouse, UniProt P07724 25-608).
T3 construct: Bought protein, immobilized on a CM5 chip by amine coupling; also called Mouse SA
The assay is described as above. The procedure: as §1, §2

For assay [4], the target named is T4, rat serum albumin (rat, UniProt P02770 25-608).
T4 construct: Bought protein, immobilized on a CM5 chip by amine coupling; also called Rat SA
The assay is described as above. Here is the method:
as §1, §2

For assay [5], the target named is T5, dog serum albumin (dog, UniProt P49822 25-608).
T5 construct: Bought protein, immobilized on a CM5 chip by amine coupling; also called Dog SA
The description is as above. The procedure:
as §1, §2

The target in assay [6] is T6, pig serum albumin (pig, UniProt P08835 25-607).
T6 construct: Bought protein, immobilized on a CM5 chip by amine coupling; also called Pig SA
Described as above. Here is the method: as §1, §2

Assay [7] deals with T7, human serum albumin (human, UniProt P02768 25-609).
T7 construct: Bought protein, immobilized on a CM5 chip by amine coupling; also called Human SA
The description is as above. Here is the method:
as §1, §2

For assay [8], the target named is T8, cow serum albumin (cow, UniProt P02769 25-607).
T8 construct: Bought protein, immobilized on a CM5 chip by amine coupling; also called Cow SA
The experiment in a line: SPR (Biacore 8K), albumin immobilized on CM5 chip, 25 C, steady state. The procedure: as §1
150 μl of sample is individually injecting sequentially across the immobilized serum albumins on the chip's surface and dissociating for 600 sec at 50 μL/min flow rate at 25° C. The surface is regenerated by injecting 10 mM glycine-HCl pH 1.5 (BR-1003-54) at 50 μL/min for 100 sec. The resulting sensorgrams are analyzed using Biacore 8K Insight Evaluation Software ([…]).

What is called Kd is the equilibrium constant for the complex coming apart. Broadly, the koff is the rate constant with which the complex falls apart. What is called kon is the rate constant with which the complex forms.

B1: RLN Analog 3 (other)
chain: EVQLLESGGGLVQPGGSLRLSCAASGRYIDETAVAWFRQAPGKEREFVAGIGGGVDITYYADSVKGRFTISRDNSKNTLYLQMNSLRPEDTAVYYCAARPGRPLITSKVADLYPYWGQGTLVTVSSGGGGQGGGGQGGGGQGGGGQGGGGQSWMEEVIKLCGRELVRAQIAICGMSTWSGGGSGGSGGGQLYSALANKCCHVGCTKRSLARFC
notes: Single-chain fusion: VHH - (G4Q)5 L1 - RLN2 B chain (desB1) - L2 - RLN2 A chain
On to B1, for which, in assay [1], the binding result was “no binding (tested: 1000 nM (highest concentration tested))”. Moreover, the dissociation constant (Kd) in assay [2] stood at 0.36 nM; in assay [3] it was 2.4 nM; in assay [4], 1.6 nM; in assay [5], 0.7 nM; in assay [6], 4.8 nM; in assay [7], 0.076 nM. In assay [8], this molecule gave an equilibrium dissociation constant (Kd) of 26 nM. Also, the koff came out at 0.00054 s⁻¹ in assay [2]; 0.004 s⁻¹ in assay [3]; 0.0027 s⁻¹ in assay [4]; 0.0014 s⁻¹ in assay [5]; 0.0053 s⁻¹ in assay [6]; 0.00011 s⁻¹ in assay [7]. For the same molecule, the kon stood at 1.5e+06 M⁻¹ s⁻¹ in assay [2]; 1.7e+06 M⁻¹ s⁻¹ in assay [3]; 1.7e+06 M⁻¹ s⁻¹ in assay [4]; 2e+06 M⁻¹ s⁻¹ in assay [5]; 1.1e+06 M⁻¹ s⁻¹ in assay [6]; 1.4e+06 M⁻¹ s⁻¹ in assay [7].

B2: RLN Analog 7 (other)
chain: EVQLLESGGGLVQPGGSLRLSCAASGRYIDETAVAWFRQAPGKGREFVAGIGGGVDITYYADSVKGRFTISRDNSKNTLYLQMNSLRPEDTAVYYCAARPGRPLITSKVADLYPYWGQGTLVTVSSGGGGQGGGGQGGGGQGGGGQGGGGQSWMEEVIKLCGRELVRAQIAICGMSTWSGGGSGGSGGGQLYSALANKCCHVGCTKRSLARFC
notes: as for B1
On to B2, for which the binding result in assay [1] is listed as “no binding (tested: 1000 nM (highest concentration tested))”. The Kd is 0.29 nM in assay [2]; 2.1 nM in assay [3]; 1.4 nM in assay [4]; 0.69 nM in assay [5]; 3.7 nM in assay [6]; 0.063 nM in assay [7]. Besides, the dissociation constant Kd in assay [8] worked out at 25 nM. The koff in assay [2] came to 0.00059 s⁻¹; in assay [3], 0.0041 s⁻¹; in assay [4] it was 0.0028 s⁻¹; in assay [5] it was 0.0015 s⁻¹; in assay [6], 0.0054 s⁻¹; in assay [7] it was 0.00012 s⁻¹. Besides, the kon in assay [2] was 2.1e+06 M⁻¹ s⁻¹; in assay [3], 2e+06 M⁻¹ s⁻¹; in assay [4] it was 2e+06 M⁻¹ s⁻¹; in assay [5], 2.2e+06 M⁻¹ s⁻¹; in assay [6] it was 1.5e+06 M⁻¹ s⁻¹; in assay [7], 1.9e+06 M⁻¹ s⁻¹.

B3: RLN Analog 11 (other)
chain: EVQLLESGGGLVQPGGSLRLSCAASGRYIDETAVAWFRQAPGKEREFVAGIGGGVDITYYADSVKGRFTISRDNSKNTLYLQMNSLRPEDTAVYYCAARPGRPLITSKVADLYPYWGQGTLVTVSSGGGGQGGGGQGGGGQGGGGQGGGGQSWMEEVIKLCGRELVRAQIAICGMSTWSGGGSGGSGGSGGGALANKCCHVGCTKRSLARFC
notes: Single-chain fusion: VHH - (G4Q)5 L1 - RLN2 B chain (desB1) - L2 of thirteen residues - RLN2 A chain (desA1-4)
Take B3: the binding result in assay [1] is listed as “no binding (tested: 1000 nM (highest concentration tested))”. Besides, the Kd was 0.48 nM in assay [2]; 3.6 nM in assay [3]; 1.3 nM in assay [4]; 1.3 nM in assay [5]; 7.3 nM in assay [6]; 0.17 nM in assay [7]. The Kd in assay [8] amounted to 27 nM. For the same molecule, the koff in assay [2] stood at 0.00064 s⁻¹; in assay [3], 0.005 s⁻¹; in assay [4], 0.0028 s⁻¹; in assay [5], 0.0017 s⁻¹; in assay [6] it was 0.0062 s⁻¹; in assay [7] it was 0.00021 s⁻¹. For the same molecule, the kon in assay [2] is 1.3e+06 M⁻¹ s⁻¹; in assay [3], 1.4e+06 M⁻¹ s⁻¹; in assay [4], 2.1e+06 M⁻¹ s⁻¹; in assay [5], 1.4e+06 M⁻¹ s⁻¹; in assay [6] it was 850000 M⁻¹ s⁻¹; in assay [7] it was 1.2e+06 M⁻¹ s⁻¹.

B4: RLN Analog 12 (other)
chain: EVQLLESGGGLVQPGGSLRLSCAASGRYIDETAVAWFRQAPGKGREFVAGIGGGVDITYYADSVKGRFTISRDNSKNTLYLQMNSLRPEDTAVYYCAARPGRPLITSKVADLYPYWGQGTLVTVSSGGGGQGGGGQGGGGQGGGGQGGGGQSWMEEVIKLCGRELVRAQIAICGMSTWSGGGSGGSGGSGGGALANKCCHVGCTKRSLARFC
notes: as for B3
Regarding B4, in assay [1], the binding result is given as “no binding (tested: 1000 nM (highest concentration tested))”. Also, the dissociation constant Kd in assay [2] came to 0.47 nM; in assay [3], 2.6 nM; in assay [4], 1.7 nM; in assay [5], 0.77 nM; in assay [6], 4.2 nM; in assay [7], 0.14 nM. Also, binding in assay [8] was characterised by a dissociation constant (Kd) of 30 nM. Moreover, the koff in assay [2] was 0.0007 s⁻¹; in assay [3], 0.0049 s⁻¹; in assay [4], 0.0033 s⁻¹; in assay [5], 0.0016 s⁻¹; in assay [6] it was 0.0058 s⁻¹; in assay [7] it was 0.00019 s⁻¹. In addition, the kon in assay [2] worked out at 1.5e+06 M⁻¹ s⁻¹; in assay [3], 1.8e+06 M⁻¹ s⁻¹; in assay [4], 2e+06 M⁻¹ s⁻¹; in assay [5], 2.1e+06 M⁻¹ s⁻¹; in assay [6], 1.4e+06 M⁻¹ s⁻¹; in assay [7], 1.4e+06 M⁻¹ s⁻¹.

B5: RLN Analog 4 (other)
chain: EVQLLESGGGLVQPGGSLRLSCAASGRYIDETAVAWFRQAPGKEREFVAGIGGGVDITYYADSVKGRFTISRDNSKNTLYLQMNSLRPEDTAVYYCAARPGRPLITSKVADLYPYWGQGTLVTVSSPGPQPGPQPGPQPGPQPGPQPGPQPGPQPGPQSWMEEVIKLCGRELVRAQIAICGMSTWSGGGSGGSGGGQLYSALANKCCHVGCTKRSLARFC
notes: Single-chain fusion: VHH - (PGPQ)8 L1 - RLN2 B chain (desB1) - L2 - RLN2 A chain
With B5, the binding result in assay [1] was “no binding (tested: 1000 nM (highest concentration tested))”. For the same molecule, the Kd in assay [2] was 0.42 nM; in assay [3] it was 3 nM; in assay [4], 2.1 nM; in assay [5] it was 1 nM; in assay [6], 6.2 nM; in assay [7] it was 0.089 nM. Moreover, the Kd in assay [8] was found to be 37 nM. The koff in assay [2] was determined as 0.00053 s⁻¹; in assay [3], 0.0039 s⁻¹; in assay [4], 0.0026 s⁻¹; in assay [5], 0.0014 s⁻¹; in assay [6], 0.0053 s⁻¹; in assay [7], 0.00011 s⁻¹. The kon in assay [2] came out at 1.3e+06 M⁻¹ s⁻¹; in assay [3] it was 1.3e+06 M⁻¹ s⁻¹; in assay [4], 1.2e+06 M⁻¹ s⁻¹; in assay [5], 1.4e+06 M⁻¹ s⁻¹; in assay [6] it was 860000 M⁻¹ s⁻¹; in assay [7] it was 1.2e+06 M⁻¹ s⁻¹.

B6: RLN Analog 8 (other)
chain: EVQLLESGGGLVQPGGSLRLSCAASGRYIDETAVAWFRQAPGKGREFVAGIGGGVDITYYADSVKGRFTISRDNSKNTLYLQMNSLRPEDTAVYYCAARPGRPLITSKVADLYPYWGQGTLVTVSSPGPQPGPQPGPQPGPQPGPQPGPQPGPQPGPQSWMEEVIKLCGRELVRAQIAICGMSTWSGGGSGGSGGGQLYSALANKCCHVGCTKRSLARFC
notes: as for B5
Consider B6, for which, in assay [1], the binding result is “no binding (tested: 1000 nM (highest concentration tested))”. The equilibrium dissociation constant (Kd) in assay [2] came out at 0.32 nM; in assay [3], 1.8 nM; in assay [4] it was 1.7 nM; in assay [5], 0.66 nM; in assay [6] it was 4.1 nM; in assay [7] it was 0.078 nM. In assay [8], this molecule registered a Kd of 21 nM. For the same molecule, the koff is 0.00059 s⁻¹ in assay [2]; 0.0039 s⁻¹ in assay [3]; 0.0028 s⁻¹ in assay [4]; 0.0015 s⁻¹ in assay [5]; 0.0052 s⁻¹ in assay [6]; 0.00011 s⁻¹ in assay [7]. Besides, the kon in assay [2] was determined as 1.9e+06 M⁻¹ s⁻¹; in assay [3], 2.2e+06 M⁻¹ s⁻¹; in assay [4], 1.6e+06 M⁻¹ s⁻¹; in assay [5] it was 2.3e+06 M⁻¹ s⁻¹; in assay [6], 1.3e+06 M⁻¹ s⁻¹; in assay [7], 1.5e+06 M⁻¹ s⁻¹.
